The values that follow come from US10765739B2, “Use of MIF and MIF pathway agonists” (Yale University, priority 2006, dated 2020).

Experiment [1] concerns AMPK. The experiment is described as follows: Hypoxic AMPK phosphorylation in human dermal fibroblasts by MIF promoter genotype. It counts as cell-based. The following applies: 10 ng/ml during 9 hours of hypoxia. As to the method: (§1) Immunoblots were performed according to standard methods known in the art. See, for example, Li et al., Am. J. Physiol Endocrinol Metab 287, E384 (2004) and Baron et al., Circ Res (Jan. 13, 2005). Heart homogenate proteins were combined with Laemmli sample buffer prior to resolution by SDS-PAGE, transferred onto polyvinylidene difluoride membranes, immunoblotted, detected with enhanced chemiluminesence, and quantified by densitometry.
To isolate human fibroblasts, human foreskin samples were obtained from the Yale Human Cell Resource Center (Department of Dermatology) in accordance with the Yale Human Investigations Committee. Fibroblasts were cultured in DMEM supplemented with 10% fetal bovine serum (FBS), penicillin (100 IU/ml) and streptomycin (100 μg/ml) at 37° C. Cells were studied at 80% confluence, and on the day prior to experiments, culture media was changed to DMEM with 1% FBS. Early passage fibroblasts were either subjected to 9 hours of hypoxia by incubation in an air-tight chamber gassed with 95% nitrogen/5% CO2 or control incubation in room air.
To confirm that relative MIF deficiency was responsible for impaired hypoxic AMPK activation in the low-expressing 5/5 genotype fibroblasts, we investigated the effect of adding human rMIF (10 ng/ml) to the culture media during hypoxic incubation.

Experiment [2] deals with AMPK. The experiment is described as follows: AMPK Thr172 phosphorylation (immunoblot densitometry) in isolated heart papillary muscles. In kind it is cell-based, rat. The following applies: normoxic heart muscles. As to the method:
(§2) Briefly, rat heart anterior and posterior left ventricular papillary muscles (3-5 mg) were equilibrated in oxygenated Dulbecco's phosphate-buffered saline (PBS) containing 1 mM MgCl2 […], glucose, and 1% BSA. Unless otherwise noted, 100% oxygen flowed continuously through sealed muscle incubation containers while muscles were kept in an oscillating water bath at 37° C., and experiments began after a 15 minute equilibration period in these conditions. During incubations designed to examine the effects of hypoxia, muscles were transferred to incubation containers gassed with N2 for 30 minutes. In incubations with rMIF (0-800 ng/ml), anti-MIF blocking antibody (100 μg/ml), and/or non-immune rabbit IgG (100 μg/ml); Sigma, USA), these compounds were added for 30-120 minutes. At the end of experiments, muscles were freeze clamped and stored in liquid nitrogen until further analysis, unless otherwise specified.
as §1

Experiment [3] deals with rat heart left ventricular papillary muscles. The experiment can be described thus: 2-deoxy-[1-3H]glucose uptake in isolated heart papillary muscles. In kind it is cell-based. To be noted: normoxic heart muscles, 0-800 ng/ml for 60 minutes. As to the method:
as §2
To further support MIF's role in modulating the AMPK pathway, we added recombinant human MIF (rMIF) to intact normoxic heart muscles. Papillary muscles were isolated as above. […]

The subject of experiment [4] is GLUT4. The experiment can be described thus: Cell-surface GLUT4 content of papillary muscles by bio-LC-ATB-BGPA photolabel. It counts as cell-based, rat. To be noted: 400 ng/ml for 60 minutes. As to the method:
as §2, with “At the end of experiments, muscles were freeze clamped and stored in liquid nitrogen until further analysis, unless otherwise specified.” left out
Glucose uptake is primarily mediated by the glucose transporter, GLUT4, and AMPK-stimulation of glucose transport is due to the translocation of GLUT4 vesicles to the cell surface, where GLUT4 is physiologically active (Sun et al., Circulation 89, 793 (1994); Young et al., Circulation 95, 415 (1997)). Thus, we assessed the cell-surface GLUT4 content of heart muscles after incubation with rMIF, utilizing a cell-membrane impermeant biotinylated glucose transporter photolabel (bio-LC-ATB-BGPA). […]

B1: rMIF: recombinant human MIF (macrophage migration inhibitory factor), the preferred MIF agonist (protein, UniProt P14174 2-115, looked up)
Macrophage migration …: PMFIVNTNVPRASVPDGFLSELTQQLAQATGKPPQYIAVHVVPDQLMAFGGSSEPCALCSLHSIGKIGGAQNRSYSKLLCGLLAERLRISPDRVYINYYDMNAANVGWNNSTFA
Consider B1, for which, in experiment [1] (5/5 genotype fibroblasts), the “hypoxic AMPK signaling (AMPK phosphorylation)” value is on record as “rescued”. Moreover, the AMPK phosphorylation entry in experiment [1] (hypoxic non-5/5 genotype fibroblasts) is listed as “no additional effect”. Further, the “AMPK Thr172 phosphorylation” value in experiment [2] (0-400 ng/ml, 0-120 minutes) is “time- and dose-dependent increase”. Further, the “maximal AMPK activation (AMPK Thr172 phosphorylation)” value in experiment [2] (400 ng/ml incubated for 60 minutes) is 1.5-2.0 fold increase. Moreover, in experiment [3], the glucose uptake result was “increase”. The “cell-surface GLUT4” value in experiment [4] is “increased”.
